Format in all cases: cell-based
In test [1] the test system is human iPS cells. Nature of the test: Induction of differentiation from human iPS cells into ovarian somatic cell-like cells (FACS of OSR1-tdTomato/NR5A1-EGFP reporters, observation of embryoid bodies). Conditions: Activin A 10 ng/ml added between day 2 and day 4. The text has this: In order to conveniently observe the expression of genes typical at each developmental stage, a human iPS cell line 1390G3 was genetically modified, and a DNA sequence that emits red fluorescence (tdTomato) with the expression of the OSR1 gene, green fluorescence (EGFP) with the expression of the NR5A1 gene, and red fluorescence (tdTomato) with the expression of the FOXL2 gene was manufactured (see FIG. 1, and after introduction into the chromosome, a portion of “PGKp-Neo (or Puro)-pA” portion was deleted with Cre). An iPS cell line into which two DNA sequences of OSR1 and NR5A1 had been introduced (which may be hereinafter abbreviated as “OTNG”), and an iPS cell line into which two DNA sequences of NR5A1 and FOXL2 had been introduced (which may be hereinafter abbreviated as “NGFT”) were manufactured. In the present test, the OTNG strain was used in most of the experiments. Furthermore, NR5A1 and SF1 are the same gene.
The cells at each stage were analyzed using a flow cytometer (BD FACSAria III).
The ES cells of monkeys and human iPS cells are considered to be similar to EpiLC in a slightly advanced state in terms of differentiation, as compared with mouse ES cells. Therefore, in the examination using monkey or human pluripotent stem cells in the present test, step 0 was omitted and the process was started from step 1. […]

Test [2] deals with cynomolgus monkey ES cells.
In test [3] the test system is human iPS cells. Nature of the test: Quantitative PCR of marker genes in cells induced from human iPS cells. The note with it: Activin A 10 ng/mL added between day 2 and day 4, fibronectin plane culture. The text has this:
The relative expression level of each marker gene was confirmed using a PCR apparatus (BIO-RAD CFX384 Real-Time System) with the following primers and conditions. In the tables, the PPIA gene and the RPLP0 gene were used as housekeeping genes. The difference in qPCR is a difference from the average value taken as “(PPIA+RPLP0)/2”. In addition, the ERCC gene was used as an absolute control between samples.

B1: Activin A: TGF-β family member produced by multiple cell species during development (protein, UniProt P08476 311-426, looked up)
Inhibin beta A chain: GLECDGKVNICCKKQFFVSFKDIGWNDWIIAPSGYHANYCEGECPSHIAGTSGSSLSFHSTVINHYRMRGHSPFANLKSCCVPTKLRPMSMLYYDDGQNIIKKDIQNMIVEECGCS
In the case of B1, the “proportion of the OSR1− (negative) and SF1+ (positive) cells” value in test [1] (plane culture, FACS day 15) is given as “further increased”. In addition, the “size of the embryoid bodies” value in test [1] (step 1 plane culture on fibronectin-coated plate) is “increased over time”. The “expression of OSR1” value in test [2] (added in step 1: bFGF 50 ng/mL entire period, Activin A 10 ng/ml one day from day 1, FACS days 2, 4, 6) was “acted toward enhancing the expression of OSR1”. In addition, the improvement of induction entry in test [2] (addition of Activin A after day 1 of step 1, FACS days 16 and 28) was “no improvement was observed”. Moreover, the “improvement of the induction of NR5A1-positive cells” value in test [2] (bFGF 50 ng/ml and Activin A 10 ng/ml (only from day 1) in step 1, days 14 and 21) is reported as “not recognized”. In test [3] (day 15), the “expression of GATA3 and HOXB9” value is on record as “decreased”. For the same molecule, the “expression of FOXL2” value in test [3] (day 27) was “almost equivalent to that in the ovarian somatic cells collected from the living body”.

For the origin of these results see US20240174985A1, “METHOD FOR PRODUCING OVARIAN SOMATIC CELL-LIKE CELLS, AND METHOD FOR INDUCING DIFFERENTIATION OF PRIMATE PLURIPOTENT STEM CELLS INTO OVARIAN SOMATIC CELL-LIKE CELLS” (Kyoto University, priority 2021, published 2024).
